Data from the supplement of paper PMC12042874.
± gives the uncertainty stated by the source.

test: amyloid nucleation score (Sup35N fusion, yeast selection) (log enrichment); library NNK2; higher = more nucleation; inactive = no reads after selection
Method in brief: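 After 24 hours of induction with 100 μM copper sulfate, psi-negative yeast expressing peptides of 20 random codons fused to Sup35N were grown for 7 days at 30°C on medium lacking adenine and uracil. Input and output plasmid inserts were sequenced with Illumina, and sequences with under 100 input reads were discarded. Scores for nucleation are the DiMSum log enrichment of output over input reads, centred on the mode score of non-aggregating sequences.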

Substance	amyloid nucleation score
ILPYGVWTRIASIKLK	0.789 ± 0.17
HDYGLCTGVDIWITLSCCDR	9.637 ± 0.029
LTGNAWSSMIYSNYNMGVYS	inactive
SCSERLSMWLRED	4.62 ± 0.047
VHEPAQV	0.352 ± 0.35
NLRHKDGTGLLRSWMSIQRR	0.436 ± 0.62
YNCSI	4.29 ± 0.11
QCKVQCKEWVYNVFAKLQDS	-0.927 ± 1.1
FEFYLIARIFCPKGLLCESS	inactive
WGHLVWGNTRCLGG	0.016 ± 1.1
VLNGNLSFLSAVWFGKM	6.729 ± 0.053
SNVLTVIVCYTKAWINKSFM	inactive
FWYENP	2.14 ± 0.16
RTVYYHQFPGSGFVYVSGFS	-0.324 ± 1.1
STMWTIGSWLKAGALSFGFL	-0.441 ± 0.36
AVNCH	0.748 ± 0.19
QDVGNKLKIWANITCARLWY	-0.067 ± 0.65
LGIVDRTFQSMPYVGWMMV	0.563 ± 0.36
GGLCYEQNFYRYKKRRVLEL	3.47 ± 0.12
SFSKNALDNRFWGRFSFFFG	1.3 ± 0.34
YMSYNYGTVLEFLELPDSHR	1.56 ± 0.11
VAFFWIKFH	-0.807 ± 1
FSWASAQLIHSV	0.59 ± 0.64
MSSRTHLARRHPVMDVCCSR	6.639 ± 0.036
PLCLSDNYMTIQSSSILNAH	-0.205 ± 0.41

Substance	amyloid nucleation score
VNVCTYTWLHVINERFTFQW	6.192 ± 0.045
QVSLMKVGWITMTPLGLHSL	4.03 ± 0.069
MNFCGNRCPFSLYIPWTACV	-0.664 ± 1.1
SRAGECSSWGHIYGLCVDLR	-0.897 ± 0.55
DEEGRVSPDVARLVAVICGA	0.413 ± 0.39
WWYPSGLDCFVVSFFRCHCV	-0.107 ± 1
NTGGS	-0.51 ± 0.61
INVAQALLSAPA	3.81 ± 0.062
VHFASPRRACRFIRRRYTTH	3.77 ± 0.11
TNCSPVVPSCD	0.224 ± 0.57
GVHMSDRVNTMSD	-0.129 ± 1.1
SLKEESFESVMNVG	3.87 ± 0.059
WQNETRMACRWFRRMLSFCI	1.42 ± 0.4
IDRCRNC	inactive
RAPVSWRLK	0.267 ± 0.42
NCGRTNGLCPGYVCVSRLAW	1.09 ± 0.21
YRSSSWVNWIQWH	3.47 ± 0.095
YYVFYMVVVCNVITIRQNHM	1.49 ± 0.28
ALILVAMSVFLSAGLRVMIK	inactive
ASDWLNRNSNS	-0.211 ± 0.28
SWVTSYERLRLPLNCMSNDQ	-0.452 ± 0.42
VGFLW	2.22 ± 0.13
LECRLC	0.308 ± 0.25
HGDVIRCRTKIIIAVFGMFM	6.21 ± 0.076
DDWVSGEEFGRSRNLNHFPD	-1.56 ± 0.48

Substance	amyloid nucleation score
YMCRYGFMDNFCAVHVSFVE	5.645 ± 0.055
RGIFSSVWLLRSIMFGVGSP	-0.016 ± 0.23
RFNCHFIWNIRPEFRMNNDK	5.61 ± 0.057
RLLFVWV	4.12 ± 0.087
LLRRGVDIWVEHFRE	-0.613 ± 0.64
LIEFAFVQFCNIVIEP	7.102 ± 0.031
SYDLPPFI	2.57 ± 0.11
IICNLKISSMQDKGVMQAVF	-0.871 ± 0.28
DLVSLLSGVFVMFVGLCFEV	-0.733 ± 1.1
VVIRCFYGTERNASWLLVCL	-0.059 ± 0.24
TCIGHFSNSQYN	inactive
GTGMTYAIWLSGIGRMRFYY	-0.816 ± 0.33
SGSRMFCVRHMIMSGGVLGS	-0.451 ± 0.54
KSAQEF	0.839 ± 0.43
SMGSPETC	-0.47 ± 1.1
GVTLNSCFFNRVYLTLFGIN	6.946 ± 0.031
SSSAIHLRFNYCYHCFHSLT	5.08 ± 0.065
HVYFSCAYWQPVYMYCCGKQ	7.771 ± 0.059
ASGVFSLAEYNFFGISKKSF	inactive
NMMISCVNTLADDVFRGGFV	-1.33 ± 0.31
LVYLIGSGNLQRISFPQRRV	5.51 ± 0.067
TTLYGNSRFTVCMTKGW	-0.271 ± 0.74
NELLNTWRLLSCPWRIWSLR	0.67 ± 0.26
VFSLCGIYMRGHYSYWCYNK	inactive
IYAGSSLTLWGDRDNKKCDR	-1.44 ± 1

Substance	amyloid nucleation score
HSLVS	-0.266 ± 1
LVAFFFVSPFGGGHIAIRLR	-0.114 ± 1.1
LFKFDVPTNIKCYIRSSCSI	inactive
LTGSFYQHNGMLSTPRHRCL	-0.547 ± 0.63
SYLHNSN	-1.26 ± 0.78
ITNDLSLYYVARVGRTDYHF	1.13 ± 0.12
GHAHLCSMYVVSIRLHLSMV	5.59 ± 0.081
LWSLLLWLPTYRYRLYLFGA	-0.113 ± 0.79
YVLSSLRICYTMLSM	inactive
SIRSS	inactive
RGSRVLSFILLRISNWIFQD	-0.239 ± 0.76
RQTSLKRL	-0.159 ± 1
LIIFTGYRCSLPFMSFF	-0.945 ± 1
NSIRSKDSDLRRYNPLPSTA	4.46 ± 0.083
QVKFLRDFEGFCMMMKHSSR	-0.395 ± 0.26
WFSDIKSPASLLVSVVVVM	0.272 ± 0.57
DSEPVYYTVNFNQLLSRLYY	1.52 ± 0.32
SKCCASLTQLITTGVLAYRA	0.489 ± 0.49
TPSDGCQHMASVVISI	0.683 ± 0.8
DNGCELPFLFFMFASTVKWS	-0.78 ± 1.1
EYRLFCCWE	6.04 ± 0.072
GLLGKTASTYAVRVWGIGVG	1.03 ± 0.2
KLWAPWYNLWLFALTIVCDI	0.343 ± 0.64
NVQRI	-0.399 ± 0.55
RCTGDLGRVARFWYETVKLN	-0.066 ± 0.39

Substance	amyloid nucleation score
AVFVPNSNALVLTVLT	0.603 ± 0.51
DSPQHHECIMVWL	4.38 ± 0.064
FSCEACIFLLYSYMFMNL	-0.522 ± 0.55
SVADGAHFCYYNLYFGGFVY	4.24 ± 0.081
LRDTPLMGWYCFRSHLVTVS	1.3 ± 0.51
YRPAWMDWF	1.78 ± 0.16
IVRELAVVLKKFYLFALFLR	-0.882 ± 0.62
YRPCGRTSPCGSGYKVSNEF	1.57 ± 0.15
LLLCGNSRGQDEASSIVFTM	0.726 ± 0.66
DSEGSA	inactive
IFHLGLRR	5.706 ± 0.053
AASRWVVSHKYRWWMMRLMK	0.302 ± 0.23
MMFNSLCSYWTTDYFATPDL	6.778 ± 0.062
TDNMDEMDREYLSCHKFCFG	3.69 ± 0.045
VSNRVLEMVSKEVASAKNQL	0.288 ± 0.34
LVLENHWYLLVCRNPVQ	-0.213 ± 0.65
MATDDIN	-0.359 ± 0.79
SGMISRRHAYGAEVELVGSN	1.17 ± 0.43
NQMCIATFHHMAYT	2.87 ± 0.086
AFRVNWYDQNRYVEVKG	0.292 ± 0.4
GCRRISFKSHISGVEGTNGG	1.2 ± 0.43
YPISLWLFYGGSGAQTLVVR	2.51 ± 0.1
WNLRMYLNMGYMVLFNIQF	3.64 ± 0.099
SQLVMHYKQVC	1.82 ± 0.14
LWGVYD	-0.212 ± 0.65

Substance	amyloid nucleation score
LCPYR	-0.776 ± 1.1
MDGIGTFNLSENR	inactive
EHHYI	-0.202 ± 1
WVFRK	-0.11 ± 0.76
CRVYMVDWGVVLRFDVRGSS	-0.909 ± 0.78
FLLCIRLRVNNNVRNN	-0.763 ± 1.1
LHVMYQTAMRAFAWNVTDLG	-0.032 ± 0.8
GYGSSYLMQARSNRRISVFL	-0.758 ± 0.79
QGCPFWYNYVLVYSVSGGIS	2.36 ± 0.14
FRHCTFRLFHAHK	-0.378 ± 1
RLLFCGWLTN	-1 ± 1
RYNPCD	0.334 ± 0.44
LLLHWRSWMRKCHVITCWSS	0.436 ± 0.35
DRPVCMYNMF	1.63 ± 0.28
RQVGNHSTYGLFNVQTRLRL	2.52 ± 0.079
VNIILASMHVLLDGCS	-1.08 ± 0.64
VMCTC	0.71 ± 0.48
LNMMFYYLRFRMHFRWMDC	-0.79 ± 0.38
RSFSSPRIILYVKLLVSLYG	-0.783 ± 0.25
EIEEYWGV	-0.125 ± 0.63
LTDCLLLLFGLLGRFYRNLS	inactive
SNVWAQ	0.571 ± 0.57
MSGVSAVLRDLFKYVELIIR	inactive
SRYGWMNRWKQPVQVVNPGF	0.031 ± 0.38
MGPDMYVCKVWLGAVAYEMG	1.95 ± 0.4

Substance	amyloid nucleation score
WIYSFTMFATWTNVT	0.092 ± 0.79
TSQQRAYITP	-0.703 ± 1
CRSTGIDIIYYHISFFLYIW	inactive
DGKFRRVTLRGPLA	0.554 ± 0.56
ESFLDINGVLRLRRLYVQSQ	0.587 ± 0.56
VREYYRVERGSFGRISGGCN	-0.748 ± 0.78
QDMQLVIYWSYKLYQVFLRA	-0.357 ± 1.1
RCVGNCMMSLRAEYD	2.8 ± 0.079
AWCFLYLLWLPGIQN	-0.226 ± 1.1
CLVVHFPVCQQAKKDCDFRY	4.53 ± 0.051
RKYTCSFRLFYRGVCFVT	-1.16 ± 0.76
YVYDISGRITVNPITYKCQL	-1.16 ± 0.64
DSGCKFAAPCSVYPLFLFDM	-0.788 ± 1.1
VQGTL	-0.718 ± 0.39
MAGLTSWCGPHHTVWLTWNG	0.939 ± 0.3
LTRCMCPLGDIMRHKEKPEM	-1.25 ± 1.1
KLDTLRFCVGAHLGTPTLCW	0.499 ± 0.34
QTFDYW	0.256 ± 0.74
LSKYLMQYNTCRLESKS	-0.336 ± 0.16
CLGSLHNVLQALAMTEPSNY	0.044 ± 0.79
GYPSARIKSDMYWNPMNVPT	-0.114 ± 0.37
DAFGRIGPNEKLYDGEDECW	0.902 ± 0.22
IFPVLPGTLYRCTMMC	-0.612 ± 0.32
GFVPGIMEF	0.808 ± 0.52
